Test results as given in patent publication US20160326257A1 (PIERRE FABRE MEDICAMENT, published 2016).
Substitutions are numbered along the chain they refer to.

B1: enzymatically deglycosylated m1022C3 (antibody, V domains shown)
VH: QVTLKESGPGILQPSQTLSLTCSFSGFSLDTSGMGVSWIRQPSGKGLEWLAHIYWDDDKRYNPSLKSRLTISKDTSSNQVFLKITSLDTADTATYYCARRSHFGNYYYAMDYWGQGTSVTVTS
VL: DVQMTQTTSSLSASLGDRVTISCRASQDISSYLNWYQQKPDGTFKLLIFYTSRLQSGVPSKYSGSGSGTDYSLTISNLEQEDIAAYFCQQGKTLPLTFGAGTKLELK
notes: also called enzymatically deglycosylated 1022C3
B2: m1022C3 (murine anti-ADAM17 monoclonal antibody 1022C3, hybridoma I-4686) (antibody, V domains shown)
VH: B1 VH with D30N
VL: B1 VL
modifications: N-glycosylated asparagine in CDR-H1
notes: Murine antibody from a hybridoma; also called mAb 1022C3; mAb m1022C3

Legend:
[1] = molecular target: T1, human ADAM17 on tumour cells (A431, MCF-7, NCI-H1299) (human, UniProt P78536 215-824); experiment: binding to NCI-H1299 tumour cells, read as MFI against antibody concentration (Log [M])
T1 construct: Endogenous ADAM17 on human tumour cell lines; also called cellular form of ADAM17

[2] = molecular target: ADAM17 fragments and chimeric constructs giving the positive response (BIAcore); experiment: SPR Biacore X100, about 700 RU m1022C3 captured, construct at 250 nM for 3 min
[3] = molecular target: M1-602H603-671 (p-c-d-mpd (Nter)-MPD (Cter)) murine/human chimeric ADAM17 human Fc fusion (murine; human) (UniProt Q9Z0F8); experiment: as above
[4] = molecular target: M1-671 (p-c-d-mpd) murine ADAM17 human Fc fusion (murine) (UniProt Q9Z0F8); experiment: as above
[5] = molecular target: T1, human ADAM17 on tumour cells (A431, …); experiment: cell-based or functional assay
[6] = molecular target: T2, H223-563 (C-D) human ADAM17 human Fc fusion (human, UniProt P78536 223-563); experiment: SPR Biacore X100, about 700 RU m1022C3 captured, construct at 250 nM for 3 min
T2 construct: Expressed in HEK293 and purified on protein A; not shown: human Fc domain at the C-terminus
Description: (§1) The experiment was performed on a Biacore X100 device. The mAb 1022C3 is used as the ligand and the ADAM17 fragments and chimeric constructs are used as the analyte. The experiment is run at 10 μl/min at 25° C. on a rabbit anti-mouse polyclonal antibody (Mouse antibody capture kit, BR-1008-38, GE Healthcare) covalently linked to the matrix of both flowcells of a CM5 sensorchip (BR-1000-12) using the amine coupling kit (BR-1000-50, GE Healthcare), using the HBS-EP+ buffer (BR-1008-26, GE Healthcare) as the running buffer. This buffer is also used for the dilutions of the ligand and the analytes.

[7] = molecular target: T3, H1-474 (P-C) human ADAM17 human Fc fusion (human, UniProt P78536 18-474); experiment: as above
T3 construct: Expressed in HEK293 and purified on protein A; not shown: human Fc domain at the C-terminus
Description: as §1

[8] = molecular target: T4, H603-671 (MPD (Cter)) human ADAM17 human Fc fusion (human, UniProt P78536 603-671); experiment: as above
T4 construct: Expressed in HEK293 and purified on protein A; not shown: human Fc domain at the C-terminus
Description: as §1

[9] = molecular target: T5, H223-602 (C-D MPD (Nter)) human ADAM17 human Fc fusion (human, UniProt P78536 223-602); experiment: as above
T5 construct: Expressed in HEK293 and purified on protein A; not shown: human Fc domain at the C-terminus
Description: as §1

[10] = molecular target: T6, H475-563 (D) human ADAM17 human Fc fusion (human, UniProt P78536 475-563); experiment: as above
T6 construct: Expressed in HEK293 and purified on protein A; not shown: human Fc domain at the C-terminus
Description: as §1

[11] = molecular target: T7, H475-602 (D-MPD (Nter)) human ADAM17 human Fc fusion (human, UniProt P78536 475-602); experiment: as above
T7 construct: Expressed in HEK293 and purified on protein A; not shown: human Fc domain at the C-terminus
Description: as §1

[12] = molecular target: soluble ADAM17 (extracellular domain of ADAM-17) (human, UniProt P78536 215-671); experiment: SPR Biacore, antibody captured on rabbit anti-mouse IgG, soluble ADAM17 400 to 12.5 nM, 1:1 Langmuir model
Description: The antibody (ligand) was bound to the second flowcell of a Biacore CM5 sensor chip (GE Healthcare) activated on both flowcells with a Rabbit anti-Mouse (RAM) IgG (H+L) covalently linked to the carboxymethyldextran matrix. Soluble ADAM17 (analyte) at concentrations ranging from 400 to 12.5 nM obtained by a two fold dilution scheme (assuming a molecular weight of 52 kDa) was injected onto the surface at a flow rate of 30 μl/min in a 120 s pulse (association) plus an extra 180 s delay for the dissociation phase measurement. The RAM surface was regenerated using NaOH 30 mM, NaCl 150 mM and 10 mM Glycine, HCl pH 1.5 buffer solutions. Curves obtained at each concentration were double referenced by first subtracting the signal from the reference FC1 surface (RAM without any mouse anti-TACE mAb) followed by subtraction of the signal obtained from a running buffer injection (Biacore HBS-EP buffer).
Data were processed using BIAevaluation 3.1 software using the 1:1 Langmuir model. The suitability of the fit was measured by the values of the Refractive Index (RI) which have to tend to zero and the κ² value.

Chain of soluble ADAM17 (extracellular domain of ADAM-17) (P78536 215-671): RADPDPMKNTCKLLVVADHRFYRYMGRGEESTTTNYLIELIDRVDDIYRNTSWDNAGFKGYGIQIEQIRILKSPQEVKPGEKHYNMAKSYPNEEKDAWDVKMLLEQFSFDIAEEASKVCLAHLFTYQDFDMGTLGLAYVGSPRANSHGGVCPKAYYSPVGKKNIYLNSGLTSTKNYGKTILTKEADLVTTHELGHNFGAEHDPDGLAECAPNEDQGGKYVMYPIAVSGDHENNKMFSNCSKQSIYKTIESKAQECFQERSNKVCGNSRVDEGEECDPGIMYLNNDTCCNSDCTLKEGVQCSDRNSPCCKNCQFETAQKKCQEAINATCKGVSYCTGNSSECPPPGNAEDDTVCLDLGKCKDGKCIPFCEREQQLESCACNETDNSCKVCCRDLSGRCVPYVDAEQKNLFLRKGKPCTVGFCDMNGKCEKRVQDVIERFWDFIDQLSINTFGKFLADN
T1 sequence (P78536 215-824 limits assumed): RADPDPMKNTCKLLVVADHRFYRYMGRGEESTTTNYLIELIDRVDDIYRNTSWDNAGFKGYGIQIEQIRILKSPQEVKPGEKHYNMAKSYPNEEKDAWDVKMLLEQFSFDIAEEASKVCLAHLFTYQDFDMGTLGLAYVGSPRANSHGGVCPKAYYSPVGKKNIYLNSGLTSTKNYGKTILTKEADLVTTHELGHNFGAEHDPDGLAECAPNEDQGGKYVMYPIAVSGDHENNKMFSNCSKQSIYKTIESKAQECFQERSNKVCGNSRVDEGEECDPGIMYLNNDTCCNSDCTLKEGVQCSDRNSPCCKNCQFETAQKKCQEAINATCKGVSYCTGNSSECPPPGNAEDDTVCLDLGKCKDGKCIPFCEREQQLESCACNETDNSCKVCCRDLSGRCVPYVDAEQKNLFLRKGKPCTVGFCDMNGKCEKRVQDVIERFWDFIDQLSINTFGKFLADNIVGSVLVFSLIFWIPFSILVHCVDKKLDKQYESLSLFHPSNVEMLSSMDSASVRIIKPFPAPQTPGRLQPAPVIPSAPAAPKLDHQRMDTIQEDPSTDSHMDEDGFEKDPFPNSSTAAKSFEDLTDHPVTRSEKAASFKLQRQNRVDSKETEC
T7 sequence (P78536 475-602): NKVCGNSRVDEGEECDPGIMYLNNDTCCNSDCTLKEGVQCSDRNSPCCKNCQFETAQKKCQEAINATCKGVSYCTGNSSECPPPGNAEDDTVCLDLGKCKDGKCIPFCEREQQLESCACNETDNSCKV
T3 sequence (P78536 18-474): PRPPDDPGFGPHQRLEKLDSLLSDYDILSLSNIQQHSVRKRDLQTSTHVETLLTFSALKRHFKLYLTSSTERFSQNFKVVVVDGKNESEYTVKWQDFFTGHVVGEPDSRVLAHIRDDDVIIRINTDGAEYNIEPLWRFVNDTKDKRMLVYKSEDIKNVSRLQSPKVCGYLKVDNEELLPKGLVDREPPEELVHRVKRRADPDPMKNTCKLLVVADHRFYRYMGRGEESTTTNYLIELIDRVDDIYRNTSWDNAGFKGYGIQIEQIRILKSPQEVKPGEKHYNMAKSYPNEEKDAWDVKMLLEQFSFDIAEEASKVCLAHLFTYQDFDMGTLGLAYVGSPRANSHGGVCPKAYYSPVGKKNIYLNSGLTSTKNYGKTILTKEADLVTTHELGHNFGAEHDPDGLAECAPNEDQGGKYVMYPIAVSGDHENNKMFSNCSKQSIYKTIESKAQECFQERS
Chain of M1-602H603-671 (p-c-d-mpd (Nter)-MPD (Cter)) murine/human chimeric ADAM17 human Fc fusion (murine; human) (Q9Z0F8 other isoform, or with tags, fused parts or gaps mutant limits assumed, form in doubt): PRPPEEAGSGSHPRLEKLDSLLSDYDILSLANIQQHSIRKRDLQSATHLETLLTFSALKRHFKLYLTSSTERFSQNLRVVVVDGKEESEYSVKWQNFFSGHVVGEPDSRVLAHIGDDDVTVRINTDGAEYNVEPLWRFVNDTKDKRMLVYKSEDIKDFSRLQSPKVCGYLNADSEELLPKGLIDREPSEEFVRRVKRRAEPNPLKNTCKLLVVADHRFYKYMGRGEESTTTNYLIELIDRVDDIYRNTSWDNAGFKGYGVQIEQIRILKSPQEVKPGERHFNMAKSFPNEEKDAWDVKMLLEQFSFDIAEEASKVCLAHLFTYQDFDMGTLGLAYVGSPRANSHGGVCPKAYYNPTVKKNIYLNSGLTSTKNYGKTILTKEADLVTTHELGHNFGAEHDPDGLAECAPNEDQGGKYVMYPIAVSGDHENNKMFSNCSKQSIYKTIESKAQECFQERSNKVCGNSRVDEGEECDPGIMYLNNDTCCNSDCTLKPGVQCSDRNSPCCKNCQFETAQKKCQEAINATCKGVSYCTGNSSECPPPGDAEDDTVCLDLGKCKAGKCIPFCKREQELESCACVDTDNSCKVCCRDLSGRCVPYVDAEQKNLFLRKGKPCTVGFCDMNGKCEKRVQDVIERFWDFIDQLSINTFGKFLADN
T5 sequence (P78536 223-602): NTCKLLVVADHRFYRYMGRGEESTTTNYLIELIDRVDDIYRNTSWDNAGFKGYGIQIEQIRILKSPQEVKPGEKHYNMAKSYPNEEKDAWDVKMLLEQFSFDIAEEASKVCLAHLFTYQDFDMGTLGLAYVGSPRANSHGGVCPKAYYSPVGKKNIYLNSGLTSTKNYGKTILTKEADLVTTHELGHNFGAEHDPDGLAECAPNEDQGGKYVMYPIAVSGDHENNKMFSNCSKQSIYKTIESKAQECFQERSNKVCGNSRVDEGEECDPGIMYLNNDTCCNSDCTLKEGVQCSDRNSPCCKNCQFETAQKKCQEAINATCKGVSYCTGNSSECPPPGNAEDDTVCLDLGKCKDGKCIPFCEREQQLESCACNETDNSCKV
T2 sequence (P78536 223-563): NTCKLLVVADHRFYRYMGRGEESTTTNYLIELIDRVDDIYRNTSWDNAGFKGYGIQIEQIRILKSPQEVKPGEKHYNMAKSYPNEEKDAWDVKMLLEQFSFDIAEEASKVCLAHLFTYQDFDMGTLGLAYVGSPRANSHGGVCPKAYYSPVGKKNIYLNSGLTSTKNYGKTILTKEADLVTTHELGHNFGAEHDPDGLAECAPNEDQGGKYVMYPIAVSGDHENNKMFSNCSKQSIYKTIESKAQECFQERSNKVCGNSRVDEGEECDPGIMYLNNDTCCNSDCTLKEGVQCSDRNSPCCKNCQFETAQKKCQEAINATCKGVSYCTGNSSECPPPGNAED
Chain of M1-671 (p-c-d-mpd) murine ADAM17 human Fc fusion (murine) (Q9Z0F8 18-671 limits assumed, form in doubt): as the sequence (Q9Z0F8 other isoform, or with tags, fused parts or gaps mutant limits assumed, form in doubt) above, with D589N, R593P counted along it
T6 sequence (P78536 475-563): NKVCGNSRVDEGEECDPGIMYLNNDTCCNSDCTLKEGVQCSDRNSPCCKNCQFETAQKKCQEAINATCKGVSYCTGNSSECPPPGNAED
T4 sequence (P78536 603-671): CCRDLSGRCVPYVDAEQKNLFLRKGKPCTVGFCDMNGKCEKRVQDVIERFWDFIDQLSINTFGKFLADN

Binder | binding result [1] | response (RU) [2] | response (RU) [3] | response (RU) [4] | IC50 (nM), inhibition of AREG-Nluc shedding from A431 cells [5] | IC50 (nM), inhibition of HB-EGF-Nluc shedding from A431 cells [5] | IC50 (nM), inhibition of TGFα-Nluc shedding from A431 cells [5] | IC50 (nM), inhibition of TNFα-Nluc shedding from A431 cells [5] | IC50 (nM), mean over the four substrates shed from A431 cells [5] | response (RU) [6] | response (RU) [7] | response (RU) [8] | response (RU) [9] | response (RU) [10] | response (RU) [11] | Kd [12] | koff [12] | kon [12]
B1 | binds |  |  |  |  |  |  |  |  |  |  |  |  |  |  |  |  | 
B2 |  | 90 to 140 RU | < 10 RU | < 10 RU | 0.067 nM | 0.062 nM | 0.093 nM | 0.054 nM | 0.069 nM | < 10 RU | < 10 RU | < 10 RU | < 10 RU | < 10 RU | < 10 RU | 1.27 nM | 0.00036 s⁻¹ | 284000 M⁻¹ s⁻¹
